Assay results as given in paper PMC5428262.

Molecular target: GFP-tagged tomosyn1 (GFP-Tomosyn1), wild type (rat) (UniProt Q9WU70)
Assay: co-IP; GFP antiserum and protein G agarose, overnight, 300 ug extract of INS 832/13 cells expressing GFP-tomosyn1 constructs; lysis buffer with 1% Triton X-100, 150 mM NaCl, 25 mM N-ethylmaleimide; blot; cells in regular media or treated with 10 mM glucose or 30 mM KCl (15 min) in KRB

Chain of UniProt Q9WU70 (Q9WU70 whole entry): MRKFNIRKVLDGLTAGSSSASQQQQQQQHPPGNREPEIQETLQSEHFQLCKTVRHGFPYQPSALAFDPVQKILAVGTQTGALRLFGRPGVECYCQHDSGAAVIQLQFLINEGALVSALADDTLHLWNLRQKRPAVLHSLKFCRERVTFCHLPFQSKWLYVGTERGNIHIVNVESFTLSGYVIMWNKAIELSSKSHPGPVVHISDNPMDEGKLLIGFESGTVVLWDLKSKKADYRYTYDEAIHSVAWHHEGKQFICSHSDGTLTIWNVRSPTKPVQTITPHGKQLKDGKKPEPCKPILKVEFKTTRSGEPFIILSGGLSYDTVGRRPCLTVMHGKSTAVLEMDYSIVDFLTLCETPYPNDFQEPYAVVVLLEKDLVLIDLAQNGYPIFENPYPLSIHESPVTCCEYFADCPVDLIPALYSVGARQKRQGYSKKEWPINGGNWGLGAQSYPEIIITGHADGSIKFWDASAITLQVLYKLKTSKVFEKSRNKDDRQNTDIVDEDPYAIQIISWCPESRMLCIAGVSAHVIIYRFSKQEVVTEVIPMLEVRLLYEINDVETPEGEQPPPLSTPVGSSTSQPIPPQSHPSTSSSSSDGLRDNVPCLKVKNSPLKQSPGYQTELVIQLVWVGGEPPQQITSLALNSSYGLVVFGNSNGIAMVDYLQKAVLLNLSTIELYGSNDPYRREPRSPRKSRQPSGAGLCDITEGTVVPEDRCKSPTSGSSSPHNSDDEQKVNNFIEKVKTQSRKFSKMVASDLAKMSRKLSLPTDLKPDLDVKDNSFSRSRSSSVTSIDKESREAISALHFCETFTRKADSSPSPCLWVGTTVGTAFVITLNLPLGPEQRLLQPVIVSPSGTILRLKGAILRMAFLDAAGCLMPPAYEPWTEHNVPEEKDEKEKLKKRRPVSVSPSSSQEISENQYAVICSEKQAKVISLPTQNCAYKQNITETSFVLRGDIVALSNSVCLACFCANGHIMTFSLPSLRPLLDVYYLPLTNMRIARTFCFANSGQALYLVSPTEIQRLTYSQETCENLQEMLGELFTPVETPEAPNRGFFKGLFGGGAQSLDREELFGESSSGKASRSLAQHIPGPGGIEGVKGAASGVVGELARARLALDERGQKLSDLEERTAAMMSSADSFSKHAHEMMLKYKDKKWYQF

- percent decrease of the interaction after KCl stimulation: 65.3%
- percent decrease of the interaction after glucose stimulation: 44.6%
B1: secretagogin (INS 832/13 cells) (natural protein)
chain: MDNAHRQTQAHLDAACFWQIWQRFDKDEKGYIKETELDAFFDDLLAKFGIEDTLMEENVQKMKEQLMVGHDISKEGRILMKELASMFLSEDENFLLFFRLETPLDNSVEFMQIWRKYDADSSGFISAAELSNFLRDLFLHHKKVISEAELEEYTSTMEKIFDRNKDGRLDLNDLARILALQENFLLQFKMDASSTEERKRDFEKIFAHYDVSKTGALEGPEVDGFVKDMMELVQPSISGVDLDKFREILLRHCDVNKDGKIQKSELALCLGLKINP
